One assay has as its system COLO205. As to the kind of experiment: STn expression on CRC line by flow cytometry using anti-STn antibodies. Format: cell-based. To be noted: detected using mSIA103. As for the experimental part:
(§1) Mouse antibodies were characterized for in vitro and in vivo efficacy in breast, colon and ovarian cancer models. The antibodies were used to identify CRC cell lines that express STn on the surface. Five CRC lines were incubated in vitro and grown to confluency. % STn expression was determined by flow cytometry using anti-STn antibodies. Approximately 30-70% of cultured SW403, COL0205 and LS174T cells naturally expressed STn on the surface (as detected using mSIA103), while HT29 and RKO had very little to no detectable STn (as detected using hSIA101) on their cell surface (see Table 6).
A general note: In flow cytometry, cells or beads pass a laser one at a time.

The test system of a further assay is LS174T. The assay is described as above. Format: cell-based. Conditions: detected using mSIA103. As for the experimental part: as §1
A further assay deals with SW403. The description is as above. Format: cell-based. Conditions: detected using mSIA103. As for the experimental part:
as §1

In assay [1] the test system is CRC Tissue Microarray (TMA) cores. Description: CRC Tissue Microarray staining for STn with and without neuraminidase. Format: binding. The text has this:
Further, a CRC Tissue Microarray (TMA) (NBP2-30214; Novus Bio, Littleton, Colo.) was stained for STn expression. The array consists of 59 cores with and without a neuraminidase (sialidase) enzyme treatment. Neuraminidase specifically cleaves terminal sialic acids and destroys STn antigen present on the tissue.

Data on one molecule can be found in patent US20230001007A1, “Glycan-Interacting Compounds and Methods of Use” (Seagen Inc., priority 2017, published 2023).

B1: mSIA103: mouse IgG2a anti-STn antibody, VH SEQ ID NO: 5, VL SEQ ID NO: 6; variable domains from 3F1 IgG1 antibodies (antibody, V domains shown)
VH: QVQLQQSDAELVKPGASVKISCKASGYTFTDHAIHWVKQKPEQGLDWIGYISPGNGDIKYNEKFKDKVTLTADKSSSTACMHLNSLTSEDSAVYFCKRSLLALDYWGQGTTLTVSS
VL: DIVMTQSHKFMSTSVGDRVSITCKASQDVGTNIAWYQQKPGRSPKVLIYSASTRHTGVPDRFTGSGSGTDFTLTISNVQSEDLTDYFCQQYSSFPLTFGVGTKLELK
modifications: mouse IgG2a constant regions
notes: variable domains from 3F1 IgG1 antibodies
Turning to B1, the “% STn expression” value amounted to 67.7% in the assay with COLO205, 69.9% with LS174T and 30.0% in the assay with SW403. Moreover, the “staining on normal colon” value in assay [1] (8 cores) was “restricted to crypt and surface mucosa”. In assay [1] (250 mU/mL neuraminidase, all 45 positive cores), the “staining after neuraminidase treatment” value is on record as “abolished”. Further, the “neoplastic cores with some level of positive membrane staining” value in assay [1] (out of the 51 neoplastic cores on the TMA) worked out at 45.
